Laboratory results from PMC7835227 (Scientific Reports, 2021).

Columns and labels:
GYM329 = molecular target: T1, GYM329 (human); assay: SPR; Biacore T200, 25 °C, pH 6.0, PB-P+; antibody captured by protein L immobilised on a CM5 chip; FcRn as analyte, two-fold dilutions 15-240 nmol/L (GYM329) or 250-4000 nmol/L (trastuzumab); steady state model; conditions: both partners purified
T1 construct: light chain of GYM329 (humanized, engineered MST1032); Made a molecule only as the ligand of Fc receptors (FcγRs, FcRn); Captured by protein L in the assays; also called anti-latent myostatin sweeping antibody; source: Chinese hamster ovary cells, stably expressed, purified (protein A)
T1 sequence (heavy, as listed by the source, chain 1 of 2): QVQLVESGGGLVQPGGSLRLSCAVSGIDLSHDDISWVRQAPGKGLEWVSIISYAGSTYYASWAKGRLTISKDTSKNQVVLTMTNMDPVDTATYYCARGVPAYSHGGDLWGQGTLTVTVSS
T1 sequence (light, as listed by the source, chain 2 of 2): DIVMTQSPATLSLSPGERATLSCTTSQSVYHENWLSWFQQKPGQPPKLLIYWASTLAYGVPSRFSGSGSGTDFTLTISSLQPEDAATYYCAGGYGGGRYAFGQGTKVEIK

[1] = molecular target: T2, reference wild type human IgG1 (with trastuzumab Fab) (human); assay: as above; conditions: both partners purified
T2 construct: heavy variable domain of trastuzumab; wild type human IgG1 heavy constant region; light chain of trastuzumab; Ligand of FcRn here; The supplement says that recombinant antibodies other than GYM329 and GYM-cyFc were expressed transiently in FreeStyle293-F and purified with protein A

Row | Kd (GYM329) [nM] | Kd [1] [nM] | Binder
1 | 104 |  | cynomolgus monkey FcRn (receptor, limits not given; soluble ectodomain taken from the UniProt extracellular feature, with beta-2-microglobulin as obligate subunit by convention) chain 1: AESHLSLLYHLTAVSSPAPGTPAFWVSGWLGPQQYLSYDSLRGQAEPCGAWVWENQVSWYWEKETTDLRIKEKLFLEAFKALGGKGPYTLQGLLGCELSPDNTSVPTAKFALNGEEFMNFDLKQGTWGGDWPEALAISQRWQQQDKAANKELTFLLFSCPHRLREHLERGRGNLEWKEPPSMRLKARPGNPGFSVLTCSAFSFYPPELQLRFLRNGMAAGTGQGDFGPNSDGSFHASSSLTVKSGDEHHYCCIVQHAGLAQPLRVELETPAKSS chain 2: IQRTPKIQVYSRHPPENGKPNFLNCYVSGFHPSDIEVDLLKNGEKMGKVEHSDLSFSKDWSFYLLYYTEFTPNEKDEYACRVNHVTLSGPRTVKWDRDM
2 |  | 1530 | cynomolgus monkey FcRn (receptor) chain 1: AESHLSLLYHLTAVSSPAPGTPAFWVSGWLGPQQYLSYDSLRGQAEPCGAWVWENQVSWYWEKETTDLRIKEKLFLEAFKALGGKGPYTLQGLLGCELSPDNTSVPTAKFALNGEEFMNFDLKQGTWGGDWPEALAISQRWQQQDKAANKELTFLLFSCPHRLREHLERGRGNLEWKEPPSMRLKARPGNPGFSVLTCSAFSFYPPELQLRFLRNGMAAGTGQGDFGPNSDGSFHASSSLTVKSGDEHHYCCIVQHAGLAQPLRVELETPAKSS chain 2: IQRTPKIQVYSRHPPENGKPNFLNCYVSGFHPSDIEVDLLKNGEKMGKVEHSDLSFSKDWSFYLLYYTEFTPNEKDEYACRVNHVTLSGPRTVKWDRDM
